The target of test [1] is T1, recombinant protein TCRVB 6-5 (human, captured on a Biotin CAP sensor chip, so presumably biotinylated; the site is not stated).
T1 construct: also called TCRVβ 6-5; TCRβ V6-5*01
T1 TCR beta: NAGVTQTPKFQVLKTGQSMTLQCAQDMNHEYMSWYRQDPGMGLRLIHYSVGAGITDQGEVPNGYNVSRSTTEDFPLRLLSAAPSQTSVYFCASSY
Put plainly: SPR, compared with BJM0277. The procedure:
(§1) TCRVB 6-5 at 5 μg/mL was immobilized on a Biotin CAP Series S Sensor Chip to 60 RU. A-H.52 was diluted to 50 nM and then serially diluted two fold. Association was 120 seconds, dissociation was 300 seconds. This assay was run in 1×HBS-EP+ Buffer pH 7.4 and 25C. The data was fit using a 1:1 binding model. A-H.52 is a phage clones and is a monovalent scFv. A-H.52 has two mutations on CDRH1.
(§2) TCRVB 6-5 at 5 ug/mL was immobilized on a Biotin CAP Series S Sensor Chip to 60 RU. A-H.53 was diluted to 50 nM and then serially diluted two fold. Association was 120 seconds, dissociation was 300 seconds. This assay was run in 1×HBS-EP+ Buffer pH 7.4 and 25C. The data was fit using a 1:1 binding model. A-H.53 (phage clone) affinity is in the pM range (Table 16).
(§3) TCRVB 6-5 at 5 μg/mL was immobilized on a Biotin CAP Series S Sensor Chip to 60 RU. A-H.54 was diluted to 50 nM and then serially diluted two fold. Association was 120 seconds, dissociation was 300 seconds. This assay was run in 1×HBS-EP+ Buffer pH 7.4 and 25C. The data was fit using a 1:1 binding model.
For orientation: In SPR one partner is held on a chip, and binding of the other changes the refractive index at the surface.

Test [2] concerns the target T1, recombinant protein TCRVB 6-5. Put plainly: SPR, TCRVB 6-5 captured on Biotin CAP Series S chip, 1:1 model, 25C. The procedure: as §1, §2, §3

B1: A-H.52 (scFv)
scFv: QVQLVQSGAEVKKPGSSVKVSCKASGYSFTLGYIHWVRQAPGQGLEWMGWFFPGSGNIKYNEKFKGRVTITADTSTSTAYMELSSLRSEDTAVYYCAGSYYSYDVLDYWGQGTTVTVSSGGGGSGGGGSGGGGSGGGGSDIQMTQSPSFLSASVGDRVTITCKASQNVGINVVWHQQKPGKAPKALIYSSSHRYSGVPSRFSGSGSGTEFTLTISSLQPEDFATYFCQQFKSYPLTFGQGTKLEIK
notes: also called phage clone; monovalent scFv
As a reminder, the Kd is the concentration at which binding is half-saturated. With B1, in test [1], the “fold greater affinity than BJM0277” value was 20 fold. In test [2], the Kd was 1.76 nM.

B2: A-H.54 (scFv)
scFv: QVQLVQSGAEVKKPGSSVKVSCKASGYSFHNWYIHWVRQAPGQGLEWMGWFFPGSGNIKYNEKFKGRVTITADTSTSTAYMELSSLRSEDTAVYYCAGSYYSYDVLDYWGQGTTVTVSSGGGGSGGGGSGGGGSGGGGSDIQMTQSPSFLSASVGDRVTITCKASQNVGINVVWHQQKPGKAPKALIYSSSHRYSGVPSRFSGSGSGTEFTLTISSLQPEDFATYFCQQFKSYPLTFGQGTKLEIK
notes: Described only as a phage clone; also called phage clone
With B2, the “fold greater affinity than BJM0277” value in test [1] came out at 17 fold. Also, the Kd in test [2] amounted to 2.22 nM.

B3: A-H.53 (scFv)
scFv: QVQLVQSGAEVKKPGSSVKVSCKASGYSFRLTYIHWVRQAPGQGLEWMGWFFPGSGNIKYNEKFKGRVTITADTSTSTAYMELSSLRSEDTAVYYCAGSYYSYDVLDYWGQGTTVTVSSGGGGSGGGGSGGGGSGGGGSDIQMTQSPSFLSASVGDRVTITCKASQNVGINVVWHQQKPGKAPKALIYSSSHRYSGVPSRFSGSGSGTEFTLTISSLQPEDFATYFCQQFKSYPLTFGQGTKLEIK
notes: as for B2
In the case of B3, the “fold greater affinity than BJM0277” value in test [1] came to 200 fold. Besides, the dissociation constant (Kd) in test [2] is 0.165 nM.

Source of the values: patent US20250340640A1 (published 2025).
